This data set deals with the molecule itself. The experiment in a line: SEC; Superdex Increase 10x300GL column on an ÄKTA Pure system; Ni-NTA purified GDH dialysed into 100 mM HEPES pH 7.4, 200 mM MgCl2, 10% glycerol; run in one buffer only. (SEC sorts molecules by how far they enter the pores of the column.)

This note sets out measurements from article PMC7268246, “Purification and immobilization of engineered glucose dehydrogenase: a new approach to producing gluconic acid from breadwaste” (Biotechnology for Biofuels, 2020).

By stoichiometry N is commonly meant a count of units in the complex or per binding partner.

B1: recombinant glucose dehydrogenase (GDH) from Sulfolobus solfataricus (enzyme, UniProt O93715 1-366, looked up)
chain: MKAIIVKPPNAGVQVKDVDEKKLDSYGKIKIRTIYNGICGTDREIVNGKLTLSTLPKGKDFLVLGHEAIGVVEESYHGFSQGDLVMPVNRRGCGICRNCLVGRPDFCETGEFGEAGIHKMDGFMREWWYDDPKYLVKIPKSIEDIGILAQPLADIEKSIEEILEVQKRVPVWTCDDGTLNCRKVLVVGTGPIGVLFTLLFRTYGLEVWMANRREPTEVEQTVIEETKTNYYNSSNGYDKLKDSVGKFDVIIDATGADVNILGNVIPLLGRNGVLGLFGFSTSGSVPLDYKTLQEIVHTNKTIIGLVNGQKPHFQQAVVHLASWKTLYPKAAKMLITKTVSINDEKELLKVLREKEHGEIKIRILWE
notes: glucose dehydrogenase (GDH) of Sulfolobus solfataricus; the discussion gives the monomer as 366 amino acid residues (41 kDa); the tagged construct has 43 kDa; also called engineered GDH; recombinant GDH; source: E. coli BL21-DE3 (pET30a), lysate heat treated at 70 °C, purified (Ni-NTA, dialysis, size exclusion chromatography)
With B1, the “stoichiometry N” value stood at 4.
